Assay results reported in paper PMC2670981, “Divergence of Catalytic Mechanism within a Glycosidase Family Provides Insight into Evolution of Carbohydrate Metabolism by Human Gut Flora” (Chemistry & Biology, 2008).

System: O=[N+]([O-])c1ccc(O[C@H]2O[C@H](CO)[C@@H](O)[C@H](O)[C@H]2O)c([N+](=O)[O-])c1
Assay: purified protein
Conditions: Ca2+

## BtGH97a (Bacteroides thetaiotaomicron VPI-5482)
  Km: 140 ± 10 µM
  kcat: 280 ± 7 s⁻¹
  kcat/Km: 2e+06 M⁻¹ s⁻¹
